Results from the supplement of paper PMC5998384.

Assays:
HeLa Kyoto [1] = assay: melting temperature (median over replicates), in situ; higher = more thermally stable
HeLa Kyoto [2] = assay: thermal stability score vs G1/S (z-score of summed log2 fold changes over temperatures); higher = more thermally stable than in G1/S
[3] = cell cycle stage: early G1 (4.5 h after nocodazole release)
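For melting temperature (median over replicates), in situ in this document: HeLa Kyoto cells synchronized by double thymidine or nocodazole block, proteins quantified by TMT10plex mass spectrometry, three independent biological replicates.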
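For thermal stability score vs G1/S (z-score of summed log2 fold changes over temperatures) in this document: synchronized HeLa Kyoto cells, proteins quantified by TMT10plex mass spectrometry, three biological replicates, mitosis taken 0.5 h after nocodazole release, G1/S directly after double thymidine block.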

Sequence of PDK1 (chain, as listed by the source): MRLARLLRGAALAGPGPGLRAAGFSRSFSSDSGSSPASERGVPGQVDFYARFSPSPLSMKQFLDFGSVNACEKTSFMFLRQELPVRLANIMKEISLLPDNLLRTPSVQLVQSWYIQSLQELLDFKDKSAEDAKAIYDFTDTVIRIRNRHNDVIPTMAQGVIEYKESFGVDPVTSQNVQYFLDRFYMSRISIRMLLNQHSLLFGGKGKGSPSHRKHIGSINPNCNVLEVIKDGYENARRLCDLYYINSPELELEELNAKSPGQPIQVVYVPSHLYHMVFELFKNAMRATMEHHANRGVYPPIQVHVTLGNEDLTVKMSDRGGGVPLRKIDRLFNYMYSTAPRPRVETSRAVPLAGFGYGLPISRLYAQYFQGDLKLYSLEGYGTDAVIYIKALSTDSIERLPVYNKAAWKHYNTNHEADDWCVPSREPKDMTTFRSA

Q: Which results are given for “MALNGAEVDDFSWEPPTEAETKVLQARRERQDRISRLMGDYLLRGYRMLGETCADCGTILLQDKQRKIYCVACQELDSDVDKDNPALNAQAALSQAREHQLASASELPLGSRPAPQPPVPRPEHCEGAAAGLKAAQGPPAPAVPPNTDVMACTQTALLQKLTWASAELGSSTSLETSIQLCGLIRACAEALRSLQQLQH [SSSCA1]”?
A: melting temperature (HeLa Kyoto [1]; cell cycle stage: G1/S): 53.3 °C; melting temperature (HeLa Kyoto [1]; cell cycle stage: mitosis): 53.5 °C

Q: With “MESMAVATDGGERPGVPAGSGLSASQRRAELRRRKLLMNSEQRINRIMGFHRPGSGAEEESQTKSKQQDSDKLNSLSVPSVSKRVVLGDSVSTGTTDQQGGVAEVKGTQLGDKLDSFIKPPECSSDVNLELRQRNRGDLTADSVQRGSRHGLEQYLSRFEEAMKLRKQLISEKPSQEDGNTTEEFDSFRIFRLVGCALLALGVRAFVCKYLSIFAPFLTLQLAYMGLYKYFPKSEKKIKTTVLTAALLLSGIPAEVINRSMDTYSKMGEVFTDLCVYFFTFIFCHELLDYWGSEVP [CAMLG]” as the substance, how does the melting temperature (HeLa Kyoto [1]; cell cycle stage: G1/S) read?
A: 57.8 °C

Q: For “MSTRKRRGGAINSRQAQKRTREATSTPEISLEAEPIELVETAGDEIVDLTCESLEPVVVDLTHNDSVVIVDERRRPRRNARRLPQDHADSCVVSSDDEELSRDRDVYVTTHTPRNARDEGATGLRPSGTVSCPICMDGYSEIVQNGRLIVSTECGHVFCSQCLRDSLKNANTCPTCRKKINHKRYHPIYI [RNF4]”, which melting temperature (HeLa Kyoto [1]; cell cycle stage: G1/S) is on record?
A: 53.2 °C

Q: Which results are given for “MSLVPATNYIYTPLNQLKGGTIVNVYGVVKFFKPPYLSKGTDYCSVVTIVDQTNVKLTCLLFSGNYEALPIIYKNGDIVRFHRLKIQVYKKETQGITSSGFASLTFEGTLGAPIIPRTSSKYFNFTTEDHKMVEALRVWASTHMSPSWTLLKLCDVQPMQYFDLTCQLLGKAEVDGASFLLKVWDGTRTPFPSWRVLIQDLVLEGDLSHIHRLQNLTIDILVYDNHVHVARSLKVGSFLRIYSLHTKLQSMNSENQTMLSLEFHLHGGTSYGRGIRVLPESNSDVDQLKKDLESANLTANQHSDVICQSEPDDSFPSSGSVSLYEVERCQQLSATILTDHQYLERTPLCAILKQKAPQQYRIRAKLRSYKPRRLFQSVKLHCPKCHLLQEVPHEGDLDIIFQDGATKTPDVKLQNTSLYDSKIWTTKNQKGRKVAVHFVKNNGILPLSNECLLLIEGGTLSEICKLSNKFNSVIPVRSGHEDLELLDLSAPFLIQGTIHHYGCKQCSSLRSIQNLNSLVDKTSWIPSSVAEALGIVPLQYVFVMTFTLDDGTGVLEAYLMDSDKFFQIPASEVLMDDDLQKSVDMIMDMFCPPGIKIDAYPWLECFIKSYNVTNGTDNQICYQIFDTTVAEDVI [POT1]”?
A: thermal stability score (HeLa Kyoto [2]; [3]): 0.878; thermal stability score (HeLa Kyoto [2]; cell cycle stage: mitosis): 1.25

Q: With “MAGLKRRVPLHSLRYFISMVGLFSKPGLLPWYARNPPGWSQLFLGTVCKGDFTRVIATKCQKGQKSQKKPSHLGPLDGSWQERLADVVTPLWRLSYEEQLKVKFAAQKKILQRLESYIQMLNGVSVTTAVPKSERLSCLLHPIIPSPVINGYRNKSTFSVNRGPDGNPKTVGFYLGTWRDGNVVCVQSNHLKNIPEKHSQVAQYYEVFLRQSPLEPCLVFHEGGYWRELTVRTNSQGHTMAIITFHPQKLSQEELHVQKEIVKEFFIRGPGAACGLTSLYFQESTMTRCSHQQSPYQLLFGEPYIFEELLSLKIRISPDAFFQINTAGAEMLYRTVGELTGVNSDTILLDICCGTGVIGLSLAQHTSRVLGIELLEQAVEDARWTAAFNGITNSEFHTGQAEKILPGLLKSKEDGQSIVAVVNPARAGLHYKVIQAIRNFRAIHTLVFVSCKLHGESTRNVIELCCPPDPAKKLLGEPFVLQQAVPVDLFPHTPHCELVLLFTR [TRMT2B]” as the substance, how does the thermal stability score (HeLa Kyoto [2]; [3]) read?
A: 0.356

Q: What about the thermal stability score (HeLa Kyoto [2]; cell cycle stage: mitosis) of the same substance?
A: 1.27

Q: “MDPETRGQEIIKVTPLQQMLASCTGAILTSVIVTPLDVVKIRLQAQNNPLPKGKCFVYSNGLMDHLCVCEEGGNKLWYKKPGNFQGTLDAFFKIIRNEGIKSLWSGLPPTLVMAVPATVIYFTCYDQLSALLRSKLGENETCIPIVAGIVARFGAVTVISPLELIRTKMQSKKFSYVELHRFVSKKVSEDGWISLWRGWAPTVLRDVPFSAMYWYNYEILKKWLCEKSGLYEPTFMINFTSGALSGSFAAVATLPFDVVKTQKQTQLWTYESHKISMPLHMSTWIIMKNIVAKNGFSGLFSGLIPRLIKIAPACAIMISTYEFGKAFFQKQNVRRQQY [SLC25A40]” was tested. Which thermal stability score (HeLa Kyoto [2]; [3]) did it give?
A: -1.32

Q: And the thermal stability score (HeLa Kyoto [2]; cell cycle stage: mitosis)?
A: -2.29

Q: “MGSNSSRIGDLPKNEYLKKLSGTESISENDPFWNQLLSFSFPAPTSSSELKLLEEATISVCRSLVENNPRTGNLGALIKVFLSRTKELKLSAECQNHIFIWQTHNALFIICCLLKVFICQMSEEELQLHFTYEEKSPGNYSSDSEDLLEELLCCLMQLITDIPLLDITYEISVEAISTMVVFLSCQLFHKEVLRQSISHKYLMRGPCLPYTSKLVKTLLYNFIRQEKPPPPGAHVFPQQSDGGGLLYGLASGVATGLWTVFTLGGVGSKAAASPELSSPLANQSLLLLLVLANLTDASDAPNPYRQAIMSFKNTQDSSPFPSSIPHAFQINFNSLYTALCEQQTSDQATLLLYTLLHQNSNIRTYMLARTDMENLVLPILEILYHVEERNSHHVYMALIILLILTEDDGFNRSIHEVILKNITWYSERVLTEISLGSLLILVVIRTIQYNMTRTRDKYLHTNCLAALANMSAQFRSLHQYAAQRIISLFSLLSKKHNKVLEQATQSLRGSLSSNDVPLPDYAQDLNVIEEVIRMMLEIINSCLTNSLHHNPNLVYALLYKRDLFEQFRTHPSFQDIMQNIDLVISFFSSRLLQAGAELSVERVLEIIKQGVVALPKDRLKKFPELKFKYVEEEQPEEFFIPYVWSLVYNSAVGLYWNPQDIQLFTMDSD [DYM]” was tested. Which thermal stability score (HeLa Kyoto [2]; [3]) did it give?
A: 0.139

Q: What about the thermal stability score (HeLa Kyoto [2]; cell cycle stage: mitosis) of the same substance?
A: 0.823

Q: Which results are given for “MHTLVFLSTRQVLQCQPAACQALPLLPRELFPLLFKVAFMDKKTVVLRELVHTWPFPLLSFQQLLQECAHCSRALLQERPSTESMQAVILGLTARLHTSEPGASTQPLCRKHALRVLDMTGLLDDGVEQDPGTMSMWDCTAAVARTCIAQQQGGAAEPGPAPIPVEVRVDLRVNRASYAFLREALRSSVGSPLRLCCRDLRAEDLPMRNTVALLQLLDAGCLRRVDLRFNNLGLRGLSVIIPHVARFQHLASLRLHYVHGDSRQPSVDGEDNFRYFLAQMGRFTCLRELSMGSSLLSGRLDQLLSTLQSPLESLELAFCALLPEDLRFLARSPHAAHLKKLDLSGNDLSGSQLAPFQGLLQASAATLLHLELTECQLADTQLLATLPILTQCASLRYLGLYGNPLSMAGLKELLRDSVAQAELRTVVHPFPVDCYEGLPWPPPASVLLEASINEEKFARVEAELHQLLLASGRAHVLWTTDIYGRLAADYFSL [LRRC14]”?
A: thermal stability score (HeLa Kyoto [2]; [3]): -0.753; thermal stability score (HeLa Kyoto [2]; cell cycle stage: mitosis): -0.00668

Q: For “MLCLCLYVPVIGEAQTEFQYFESKGLPAELKSIFKLSVFIPSQEFSTYRQWKQKIVQAGDKDLDGQLDFEEFVHYLQDHEKKLRLVFKSLDKKNDGRIDAQEIMQSLRDLGVKISEQQAEKILKSMDKNGTMTIDWNEWRDYHLLHPVENIPEIILYWKHSTIFDVGENLTVPDEFTVEERQTGMWWRHLVAGGGAGAVSRTCTAPLDRLKVLMQVHASRSNNMGIVGGFTQMIREGGARSLWRGNGINVLKIAPESAIKFMAYEQIKRLVGSDQETLRIHERLVAGSLAGAIAQSSIYPMEVLKTRMALRKTGQYSGMLDCARRILAREGVAAFYKGYVPNMLGIIPYAGIDLAVYETLKNAWLQHYAVNSADPGVFVLLACGTMSSTCGQLASYPLALVRTRMQAQASIEGAPEVTMSSLFKHILRTEGAFGLYRGLAPNFMKVIPAVSISYVVYENLKITLGVQSR [SLC25A25]”, which thermal stability score (HeLa Kyoto [2]; [3]) is on record?
A: -0.983

Q: And the thermal stability score (HeLa Kyoto [2]; cell cycle stage: mitosis)?
A: -0.000686

Q: Which thermal stability score (HeLa Kyoto [2]; [3]) does the source give for PDK1 here?
A: -0.202

Q: What about the thermal stability score (HeLa Kyoto [2]; cell cycle stage: mitosis) of the same substance?
A: 0.796

Q: For “MAALEKMTFPKKMTFPEKPSHKKYRAALKKEKRKKRRQELARLRDSGLSQEEEEDTFIEEQQLEEEKLLERERERLHEEWLLREQKAQEEFRIKKEKEEAAKKWLEEQERKLKEQWKEQQRKEREEEEQKQQEKKEKEEAVQKMLDQAENDLENSTTWQNPEPPVDFRVMEKDRANCPFYSKTGACRFGDRCSRKHNFPTSSPTLLIKSMFTTFGMEQCRRDDYDPDASLEYSEEETYQQFLDFYEDVLPEFKNVGKVIQFKVSCNLEPHLRGNVYVQYQSEEECQAALSLFNGRWYAGRQLQCEFCPVTRWKMAICGLFEIQQCPRGKHCNFLHVFRNPNNEFWEANRDIYLSSDQTGSSFGKNSERREKMGHHDHYYSRQRGRRNPSPDHTYKRNGESERKKSSHRGKKSHKRTSKSRERHNSPSRGRNRHRSWDQGRRSQSRRSHRSRSQSSSRCRSRGRRKSGNRDRTVQSPQSK [ZRSR1]”, which thermal stability score (HeLa Kyoto [2]; [3]) is on record?
A: 1.06e-17

Q: And the thermal stability score (HeLa Kyoto [2]; cell cycle stage: mitosis)?
A: 1.37e-17

Q: With “MASAVFEGTSLVNMFVRGCWVNGIRRLIVSRRGDEEEFFEIRTEWSDRSVLYLHRSLADLGRLWQRLRDAFPEDRSELAQGPLRQGLVAIKEAHDIETRLNEVEKLLKTIISMPCKYSRSEVVLTFFERSPLDQVLKNDNVHKIQPSFQSPVKISEIMRSNGFCLANTETIVIDHSIPNGRDQQLGVDPTEHLFENGSEFPSELEDGDDPAAYVTNLSYYHLVPFETDIWD [PXDC1]” as the substance, how does the thermal stability score (HeLa Kyoto [2]; [3]) read?
A: -0.022

Q: And the thermal stability score (HeLa Kyoto [2]; cell cycle stage: mitosis)?
A: 0.549

Q: How did the thermal stability score (HeLa Kyoto [2]; [3]) turn out when “MIEVVAELSRGPVFLAGEALECVVTVTNPLPPTATSASSEALAWASAQIHCQFHASESRVALPPPDSSQPDVQPDSQTVFLPHRGERGQCILSTPPKILFCDLRLDPGESKSYSYSEVLPIEGPPSFRGQSVKYVYKLTIGCQRVNSPITLLRVPLRVLVLTGLQDVRFPQDEAVAPSSPFLEEDEGGKKDSWLAELAGERLMAATSCRSLHLYNISDGRGKVGTFGIFKSVYRLGEDVVGTLNLGEGTVACLQFSVSLQTEERVQPEYQRRRGAGGVPSVSHVTHARHQESCLHTTRTSFSLPIPLSSTPGFCTAIVSLKWRLHFEFVTSREPGLVLLPPVEQPEPTTWTGPEQVPVDTFSWDLPIKVLPTSPTLASYAAPGPSTSTITI [RGP1]” was run?
A: 0.0205

Q: What about the thermal stability score (HeLa Kyoto [2]; cell cycle stage: mitosis) of the same substance?
A: -1.18

Q: What does the source list for “MSSGNAKIGHPAPNFKATAVMPDGQFKDISLSDYKGKYVVFFFYPLDFTFVCPTEIIAFSDRAEEFKKLNCQVIGASVDSHFCHLAWVNTPKKQGGLGPMNIPLVSDPKRTIAQDYGVLKADEGISFRGLFIIDDKGILRQITVNDLPVGRSVDETLRLVQAFQFTDKHGEVCPAGWKPGSDTIKPDVQKSKEYFSKQK [PRDX1]”?
A: thermal stability score (HeLa Kyoto [2]; [3]): -0.285; thermal stability score (HeLa Kyoto [2]; cell cycle stage: mitosis): -1.31

Q: With “MAAGLRKRGRSGSAAQAEGLCKQWLQRAWQERRLLLREPRYTLLVAACLCLAEVGITFWVIHRVAYTEIDWKAYMAEVEGVINGTYDYTQLQGDTGPLVYPAGFVYIFMGLYYATSRGTDIRMAQNIFAVLYLATLLLVFLIYHQTCKVPPFVFFFMCCASYRVHSIFVLRLFNDPVAMVLLFLSINLLLAQRWGWGCCFFSLAVSVKMNVLLFAPGLLFLLLTQFGFRGALPKLGICAGLQVVLGLPFLLENPSGYLSRSFDLGRQFLFHWTVNWRFLPEALFLHRAFHLALLTAHLTLLLLFALCRWHRTGESILSLLRDPSKRKVPPQPLTPNQIVSTLFTSNFIGICFSRSLHYQFYVWYFHTLPYLLWAMPARWLTHLLRLLVLGLIELSWNTYPSTSCSSAALHICHAVILLQLWLGPQPFPKSTQHSKKAH [ALG3]” as the substance, how does the thermal stability score (HeLa Kyoto [2]; [3]) read?
A: 1.41

Q: And the thermal stability score (HeLa Kyoto [2]; cell cycle stage: mitosis)?
A: 2.38

Q: With “MSGFENLNTDFYQTSYSIDDQSQQSYDYGGSGGPYSKQYAGYDYSQQGRFVPPDMMQPQQPYTGQIYQPTQAYTPASPQPFYGNNFEDEPPLLEELGINFDHIWQKTLTVLHPLKVADGSIMNETDLAGPMVFCLAFGATLLLAGKIQFGYVYGISAIGCLGMFCLLNLMSMTGVSFGCVASVLGYCLLPMILLSSFAVIFSLQGMVGIILTAGIIGWCSFSASKIFISALAMEGQQLLVAYPCALLYGVFALISVF [YIPF5]” as the substance, how does the thermal stability score (HeLa Kyoto [2]; [3]) read?
A: -0.124

Q: And the thermal stability score (HeLa Kyoto [2]; cell cycle stage: mitosis)?
A: -0.361
